For 19 molecules, Absorbance (450 nm) results are on record in patent US20200317779A1.

For assay [1], the target named is recombinant human CD3ε/δ heterodimer (human) (UniProt P07766). As to the kind of experiment: ELISA, coated CD3ε/δ. For orientation: An ELISA detects its analyte on a solid surface through an enzyme-linked reagent.
Assay [2] deals with recombinant cynomolgus monkey CD3ε/δ heterodimer (cynomolgus monkey) (UniProt Q95LI5). Put plainly: ELISA, coated CD3ε/δ.
Sequence of recombinant cynomolgus monkey CD3ε/δ heterodimer (cynomolgus monkey) (Q95LI5 22-117, stated change not applied, chain 1 of 2): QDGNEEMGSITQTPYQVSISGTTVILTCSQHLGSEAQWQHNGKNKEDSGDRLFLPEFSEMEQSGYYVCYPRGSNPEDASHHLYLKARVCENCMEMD
Sequence of recombinant cynomolgus monkey CD3ε/δ heterodimer (cynomolgus monkey) (Q95LI8 22-105, stated change not applied, chain 2 of 2, further chain): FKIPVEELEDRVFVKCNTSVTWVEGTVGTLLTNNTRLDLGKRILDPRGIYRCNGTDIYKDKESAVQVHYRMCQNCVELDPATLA

Sequence of recombinant human CD3ε/δ heterodimer (human) (P07766 23-126, stated change not applied, chain 1 of 2): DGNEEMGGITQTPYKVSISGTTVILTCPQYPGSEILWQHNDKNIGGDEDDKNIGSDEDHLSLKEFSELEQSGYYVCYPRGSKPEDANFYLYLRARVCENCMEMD
Sequence of recombinant human CD3ε/δ heterodimer (human) (P04234 22-105, stated change not applied, chain 2 of 2, further chain): as the sequence (Q95LI8 22-105, stated change not applied, chain 2 of 2, further chain) above, with V5I, K15N, V20I, T32S, N33D, N34I, A64T, N74S, L83V counted along it

B1: C02 (antibody, human IgG1, lambda, L234A L235A, V domains shown)
VH: EVQLVESGGGLVQPGGSLKLSCAASGFTFNTYAMNWVRQASGKGLEWVGRIRSKYNNYATYYADSVKDRFTISRDDSQSTAYLQMNSLKTEDTAVYYCVRHGNFGNSYVSWFAYWGQGTLVTVSS
VL: QAVVTQEPSLTVSPGGTVTLTCRSSTGAVTTSNYANWFQQKPGQAPRTLIYGTNKRAPWTPARFSGSLLGDKAALTLSGAQPEDEAEYYCALWYSNLWVFGGGTKLTVLG
Turning to B1, the Absorbance (450 nm) in assay [1] was 0.099; in assay [2] it was 0.071.

B2: C11 (antibody, human IgG1, lambda, L234A L235A, V domains shown)
VH: EVQLVESGGGLVQPGGSLKLSCAASGFTFNTYAMNWVRQASGKGLEWVGRIRSKYNNYATYYADSVKDRFTISRDDSQSTAYLQMNSLKTEDTAVYYCVRHGNFGNSYVSWFAYWGQGTLVTVSS
VL: QAVVTQEPSLTVSPGGTVTLTCRSSTGAVTTSNYANWVQQKPGQAPRTLIGGTNKRAPWTPARFSGSLLGGKAALTLSGAQPEDEAEYYCALWYSNLWVFGGGTKLTVLG
On to B2, for which the Absorbance (450 nm) amounted to 0.288 in assay [1] and 0.261 in assay [2].

B3: C10 (antibody, human IgG1, lambda, L234A L235A, V domains shown)
VH: EVQLVESGGGLVQPGGSLKLSCAASGFTFNTYAMNWVRQASGKGLEWVGRIRSKYNNYATYYADSVKDRFTISRDDSQSTAYLQMNSLKTEDTAVYYCVRHGNFGNSYVSWFAYWGQGTLVTVSS
VL: QAVVTQEPSLTVSPGGTVTLTCRSSTGAVTTSNYANWVQQKPGQAPRTLIYGTNKRAPWTPARFSGSLLGDKAALTLSGAQPEDEAEYYCALWYSNLWVFGGGTKLTVLG
As to B3, the Absorbance (450 nm) turned out to be 0.096 in assay [1] and 0.074 in assay [2].

B4: C03 (antibody, human IgG1, lambda, L234A L235A, V domains shown)
VH: EVQLVESGGGLVQPGGSLKLSCAASGFTFNTYAMNWVRQASGKGLEWVGRIRSKYNNYATYYADSVKDRFTISRDDSQSTAYLQMNSLKTEDTAVYYCVRHGNFGNSYVSWFAYWGQGTLVTVSS
VL: QAVVTQEPSLTVSPGGTVTLTCRSSTGAVTTSNYANWFQQKPGQAPRTLIGGTNKRAPWTPARFSGSLLGGKAALTLSGAQPEDEAEYYCALWYSNLWVFGGGTKLTVLG
For the molecule B4, the Absorbance (450 nm) is 0.14 in assay [1] and 0.089 in assay [2].

B5: C09 (antibody, human IgG1, lambda, L234A L235A, V domains shown)
VH: EVQLVESGGGLVQPGGSLKLSCAASGFTFNTYAMNWVRQASGKGLEWVGRIRSKYNNYATYYADSVKDRFTISRDDSQSTAYLQMNSLKTEDTAVYYCVRHGNFGNSYVSWFAYWGQGTLVTVSS
VL: QAVVTQEPSLTVSPGGTVTLTCRSSTGAVTTSNYANWVQQKPGQAPRTLIYGTNKRAPWTPARFSGSLLGGKAALTLSGAQPEDEAEYYCALWYSNLWVFGGGTKLTVLG
For the molecule B5, the values for the Absorbance (450 nm) in assay [1] and in assay [2] were 0.109 and 0.075, respectively.

B6: A05 (antibody, human IgG1, lambda, L234A L235A, V domains shown)
VH: EVQLVESGGGLVQPGGSLKLSCAASGFTFNTYAMNWVRQASGKGLEWVGRIRSKYNNYATYYADSVKDRFTISRDDSKNTAYLQMNSLKTEDTAVYYCVRHGNFGNSYVSWFAYWGQGTLVTVSS
VL: QAVVTQEPSLTVSPGGTVTLTCRSSTGAVTTSNYANWFQQKPGQAPRGLIYGTNKRAPWTPARFSGSLLGGKAALTLSGAQPEDEAEYYCALWYSNLWVFGGGTKLTVLG
Take B6: the Absorbance (450 nm) in assay [1] stood at 0.167; in assay [2], 0.141.

B7: A04 (antibody, human IgG1, lambda, L234A L235A, V domains shown)
VH: EVQLVESGGGLVQPGGSLKLSCAASGFTFNTYAMNWVRQASGKGLEWVGRIRSKYNNYATYYADSVKDRFTISRDDSKNTAYLQMNSLKTEDTAVYYCVRHGNFGNSYVSWFAYWGQGTLVTVSS
VL: QAVVTQEPSLTVSPGGTVTLTCRSSTGAVTTSNYANWFQQKPGQAPRTLIGGTNKRAPWTPARFSGSLLGDKAALTLSGAQPEDEAEYYCALWYSNLWVFGGGTKLTVLG
B7: the Absorbance (450 nm) came out at 0.098 in assay [1] and 0.065 in assay [2].

B8: C06 (antibody, human IgG1, lambda, L234A L235A, V domains shown)
VH: EVQLVESGGGLVQPGGSLKLSCAASGFTFNTYAMNWVRQASGKGLEWVGRIRSKYNNYATYYADSVKDRFTISRDDSQSTAYLQMNSLKTEDTAVYYCVRHGNFGNSYVSWFAYWGQGTLVTVSS
VL: QAVVTQEPSLTVSPGGTVTLTCRSSTGAVTTSNYANWFQQKPGQAPRGLIYGTNKRAPWTPARFSGSLLGDKAALTLSGAQPEDEAEYYCALWYSNLWVFGGGTKLTVLG
Consider B8, for which the Absorbance (450 nm) is 0.108 in assay [1] and 0.083 in assay [2].

B9: C04 (antibody, human IgG1, lambda, L234A L235A, V domains shown)
VH: EVQLVESGGGLVQPGGSLKLSCAASGFTFNTYAMNWVRQASGKGLEWVGRIRSKYNNYATYYADSVKDRFTISRDDSQSTAYLQMNSLKTEDTAVYYCVRHGNFGNSYVSWFAYWGQGTLVTVSS
VL: QAVVTQEPSLTVSPGGTVTLTCRSSTGAVTTSNYANWFQQKPGQAPRTLIGGTNKRAPWTPARFSGSLLGDKAALTLSGAQPEDEAEYYCALWYSNLWVFGGGTKLTVLG
For B9, the Absorbance (450 nm) came to 0.093 in assay [1] and 0.067 in assay [2].

B10: C05 (antibody, human IgG1, lambda, L234A L235A, V domains shown)
VH: EVQLVESGGGLVQPGGSLKLSCAASGFTFNTYAMNWVRQASGKGLEWVGRIRSKYNNYATYYADSVKDRFTISRDDSQSTAYLQMNSLKTEDTAVYYCVRHGNFGNSYVSWFAYWGQGTLVTVSS
VL: QAVVTQEPSLTVSPGGTVTLTCRSSTGAVTTSNYANWFQQKPGQAPRGLIYGTNKRAPWTPARFSGSLLGGKAALTLSGAQPEDEAEYYCALWYSNLWVFGGGTKLTVLG
On to B10, for which the results for the Absorbance (450 nm) in assay [1] and in assay [2] were 0.107 and 0.128, respectively.

B11: D04 (antibody, human IgG1, lambda, L234A L235A, V domains shown)
VH: EVQLVESGGGLVQPGGSLKLSCAASGFTFNTYAMNWVRQASGKGLEWVGRIRSKYNNYATYYADSVKDRFTISRDDSQSTLYLQMNSLKTEDTAVYYCVRHGNFGNSYVSWFAYWGQGTLVTVSS
VL: QAVVTQEPSLTVSPGGTVTLTCRSSTGAVTTSNYANWFQQKPGQAPRTLIGGTNKRAPWTPARFSGSLLGDKAALTLSGAQPEDEAEYYCALWYSNLWVFGGGTKLTVLG
On to B11, for which the Absorbance (450 nm) in assay [1] was determined as 0.091; in assay [2] it was 0.072.

B12: C14 (antibody, human IgG1, lambda, L234A L235A, V domains shown)
VH: EVQLVESGGGLVQPGGSLKLSCAASGFTFNTYAMNWVRQASGKGLEWVGRIRSKYNNYATYYADSVKDRFTISRDDSQSTAYLQMNSLKTEDTAVYYCVRHGNFGNSYVSWFAYWGQGTLVTVSS
VL: QAVVTQEPSLTVSPGGTVTLTCRSSTGAVTTSNYANWVQQKPGQAPRGLIYGTNKRAPWTPARFSGSLLGDKAALTLSGAQPEDEAEYYCALWYSNLWVFGGGTKLTVLG
On to B12, for which the Absorbance (450 nm) came out at 0.107 in assay [1] and 0.095 in assay [2].

B13: C13 (antibody, human IgG1, lambda, L234A L235A, V domains shown)
VH: EVQLVESGGGLVQPGGSLKLSCAASGFTFNTYAMNWVRQASGKGLEWVGRIRSKYNNYATYYADSVKDRFTISRDDSQSTAYLQMNSLKTEDTAVYYCVRHGNFGNSYVSWFAYWGQGTLVTVSS
VL: QAVVTQEPSLTVSPGGTVTLTCRSSTGAVTTSNYANWVQQKPGQAPRGLIYGTNKRAPWTPARFSGSLLGGKAALTLSGAQPEDEAEYYCALWYSNLWVFGGGTKLTVLG
With B13, the Absorbance (450 nm) in assay [1] and in assay [2] was 0.179 each time.

B14: D03 (antibody, human IgG1, lambda, L234A L235A, V domains shown)
VH: EVQLVESGGGLVQPGGSLKLSCAASGFTFNTYAMNWVRQASGKGLEWVGRIRSKYNNYATYYADSVKDRFTISRDDSQSTLYLQMNSLKTEDTAVYYCVRHGNFGNSYVSWFAYWGQGTLVTVSS
VL: QAVVTQEPSLTVSPGGTVTLTCRSSTGAVTTSNYANWFQQKPGQAPRTLIGGTNKRAPWTPARFSGSLLGGKAALTLSGAQPEDEAEYYCALWYSNLWVFGGGTKLTVLG
In the case of B14, the Absorbance (450 nm) came out at 0.159 in assay [1] and 0.13 in assay [2].

B15: D05 (antibody, human IgG1, lambda, L234A L235A, V domains shown)
VH: EVQLVESGGGLVQPGGSLKLSCAASGFTFNTYAMNWVRQASGKGLEWVGRIRSKYNNYATYYADSVKDRFTISRDDSQSTLYLQMNSLKTEDTAVYYCVRHGNFGNSYVSWFAYWGQGTLVTVSS
VL: QAVVTQEPSLTVSPGGTVTLTCRSSTGAVTTSNYANWFQQKPGQAPRGLIYGTNKRAPWTPARFSGSLLGGKAALTLSGAQPEDEAEYYCALWYSNLWVFGGGTKLTVLG
With B15, the Absorbance (450 nm) in assay [1] came out at 0.121; in assay [2], 0.101.

B16: D06 (antibody, human IgG1, lambda, L234A L235A, V domains shown)
VH: EVQLVESGGGLVQPGGSLKLSCAASGFTFNTYAMNWVRQASGKGLEWVGRIRSKYNNYATYYADSVKDRFTISRDDSQSTLYLQMNSLKTEDTAVYYCVRHGNFGNSYVSWFAYWGQGTLVTVSS
VL: QAVVTQEPSLTVSPGGTVTLTCRSSTGAVTTSNYANWFQQKPGQAPRGLIYGTNKRAPWTPARFSGSLLGDKAALTLSGAQPEDEAEYYCALWYSNLWVFGGGTKLTVLG
For the molecule B16, the Absorbance (450 nm) in assay [1] came out at 0.136; in assay [2], 0.11.

B17: D01 (antibody, human IgG1, lambda, L234A L235A, V domains shown)
VH: EVQLVESGGGLVQPGGSLKLSCAASGFTFNTYAMNWVRQASGKGLEWVGRIRSKYNNYATYYADSVKDRFTISRDDSQSTLYLQMNSLKTEDTAVYYCVRHGNFGNSYVSWFAYWGQGTLVTVSS
VL: QAVVTQEPSLTVSPGGTVTLTCRSSTGAVTTSNYANWFQQKPGQAPRTLIYGTNKRAPWTPARFSGSLLGGKAALTLSGAQPEDEAEYYCALWYSNLWVFGGGTKLTVLG
Turning to B17, the Absorbance (450 nm) in assay [1] turned out to be 0.136; in assay [2], 0.099.

B18: C12 (antibody, human IgG1, lambda, L234A L235A, V domains shown)
VH: EVQLVESGGGLVQPGGSLKLSCAASGFTFNTYAMNWVRQASGKGLEWVGRIRSKYNNYATYYADSVKDRFTISRDDSQSTAYLQMNSLKTEDTAVYYCVRHGNFGNSYVSWFAYWGQGTLVTVSS
VL: QAVVTQEPSLTVSPGGTVTLTCRSSTGAVTTSNYANWVQQKPGQAPRTLIGGTNKRAPWTPARFSGSLLGDKAALTLSGAQPEDEAEYYCALWYSNLWVFGGGTKLTVLG
Turning to B18, the Absorbance (450 nm) in assay [1] worked out at 0.087; in assay [2], 0.065.

B19: D02 (antibody, human IgG1, lambda, L234A L235A, V domains shown)
VH: EVQLVESGGGLVQPGGSLKLSCAASGFTFNTYAMNWVRQASGKGLEWVGRIRSKYNNYATYYADSVKDRFTISRDDSQSTLYLQMNSLKTEDTAVYYCVRHGNFGNSYVSWFAYWGQGTLVTVSS
VL: QAVVTQEPSLTVSPGGTVTLTCRSSTGAVTTSNYANWFQQKPGQAPRTLIYGTNKRAPWTPARFSGSLLGDKAALTLSGAQPEDEAEYYCALWYSNLWVFGGGTKLTVLG
As for B19, the Absorbance (450 nm) in assay [1] is 0.15; in assay [2], 0.073.
